Consider two molecules from US20240124607A1 (Merck Sharp & Dohme, published 2024).

In one experiment the target is T1, Human CEACAM8 (human, UniProt P31997 35-320, limits assumed).
T1 sequence (looked up): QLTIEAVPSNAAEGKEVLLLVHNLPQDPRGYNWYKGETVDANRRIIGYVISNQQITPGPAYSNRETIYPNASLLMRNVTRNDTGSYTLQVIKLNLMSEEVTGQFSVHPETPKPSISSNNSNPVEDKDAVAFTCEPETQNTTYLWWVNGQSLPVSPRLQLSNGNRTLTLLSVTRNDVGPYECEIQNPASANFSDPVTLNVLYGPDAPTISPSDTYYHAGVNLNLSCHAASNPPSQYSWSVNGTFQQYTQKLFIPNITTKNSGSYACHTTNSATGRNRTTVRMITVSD
In words: SPR, 37C, pH 7.4.

The target of experiment [1] is T2, human FcγRIIB (human, UniProt P31994 43-217, limits assumed).
T2 sequence (looked up): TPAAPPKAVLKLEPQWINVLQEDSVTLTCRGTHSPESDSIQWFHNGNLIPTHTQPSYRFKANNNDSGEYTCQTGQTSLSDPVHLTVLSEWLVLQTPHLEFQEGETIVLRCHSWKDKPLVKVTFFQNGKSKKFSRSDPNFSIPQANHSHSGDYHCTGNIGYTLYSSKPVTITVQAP
The experiment is described as follows: SPR, AB0621 on Protein A chip, 25C, pH 7.4; reference not named. The method, then: (§1) AB0621 was captured onto a Protein A chip (Cytiva, #29127556). Human FcγRs were titrated over captured AB0621 as 3-fold serial dilutions starting from 300 nM for FcγRI, 1000 nM for FcγRIIA R131 and H131, and 3000 nM for FcγRIIB and FcγRIIIB. Association was monitored for 120 sec and dissociation was monitored for 180 sec. Assays were run at 25° C. at pH 7.4. The surface of the chip was regenerated with 10 mM glycine pH 1.5 for 20 sec at 30 μL/min.

In experiment [2] the target is T3, human FcγRIIA H131 (human, UniProt P12318 34-218, limits assumed).
T3 sequence (looked up): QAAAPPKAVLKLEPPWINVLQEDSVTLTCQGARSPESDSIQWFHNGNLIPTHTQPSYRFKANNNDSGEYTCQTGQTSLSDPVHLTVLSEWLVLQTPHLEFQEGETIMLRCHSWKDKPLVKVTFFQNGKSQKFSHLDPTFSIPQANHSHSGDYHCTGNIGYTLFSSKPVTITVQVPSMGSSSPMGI
The experiment is described as above. The procedure: as §1

Experiment [3] concerns the target T4, human FcγRI (human, UniProt P12314 16-288, limits assumed). The description is as above. The procedure:
as §1

The target in experiment [4] is T5, human FcγRIIA R131 (human, UniProt P12318 34-218, limits assumed).
T5 sequence (looked up): T3 sequence (looked up) with H134R
The experiment is described as above. The procedure: as §1

The next experiment addresses Human FcRn (human, UniProt P55899 24-297; P61769 21-119, limits assumed). In words: SPR, anti-kappa capture, 25C, pH 6.0; pH 6.0. The procedure:
(§2) Anti-kappa light chain antibody was immobilized onto a CM5 chip following a standard amine-coupling protocol. AB0621 was captured onto the chip and human or cynomolgus FcRn was titrated from 2000 nM as 2-fold serial dilutions. Association was monitored for 120 sec and dissociation was monitored for 180 sec. Assays were run at 25° C. at both pH 7.4 and pH 6.0. The surface of the chip was regenerated with two pulses of 10 mM glycine pH 1.5 for 20 sec at 30 μL/min followed by 10 mM NaOH for 20 sec at 30 μL/min.

Another experiment concerns the target Cyno FcRn (cynomolgus monkey, UniProt Q8SPV9 24-297; Q8SPW0 21-119, limits assumed). The experiment is described as follows: SPR, anti-kappa capture, 25C, pH 6.0; pH 6.0. The method, then:
as §2

Experiment [5] addresses T2, human FcγRIIB. The experiment is described as follows: SPR, AB0621 on Protein A chip, 25C, pH 7.4. The method, then: as §1
Experiment [6] concerns the target T3, human FcγRIIA H131. The experiment is described as follows: SPR, AB0621 on Protein A chip, 25C, pH 7.4. The method, then:
as §1

For another experiment, the target named is human FcγRIIIB (human, UniProt O75015 17-200, limits assumed). In words: SPR, AB0621 on Protein A chip, 25C, pH 7.4. The procedure:
as §1

Experiment [7] deals with T4, human FcγRI. The experiment is described as follows: SPR, AB0621 on Protein A chip, 25C, pH 7.4. The procedure: as §1
Experiment [8] deals with T5, human FcγRIIA R131. In words: SPR, AB0621 on Protein A chip, 25C, pH 7.4. The method, then: as §1
For experiment [9], the target named is T6, human CD16A (FcγRIIIA) V158 (human, UniProt P08637 17-208, limits assumed, biotinylated in the assay of Table 21).
T6 construct: also called CD16A (V158/V176)
T6 sequence (P08637 17-208 F176V limits assumed): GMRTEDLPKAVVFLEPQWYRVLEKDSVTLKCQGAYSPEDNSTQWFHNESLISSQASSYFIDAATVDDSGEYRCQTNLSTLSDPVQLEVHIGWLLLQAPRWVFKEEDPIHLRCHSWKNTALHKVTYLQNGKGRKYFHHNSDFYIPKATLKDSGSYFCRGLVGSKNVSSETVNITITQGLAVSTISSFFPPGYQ
The experiment is described as follows: SPR (Biacore), AB0264 captured on a CM5 chip with immobilised human CEACAM5; 2 uM CD16A, then premix of 2 uM CD16A and 2 uM NKG2D-His. An excerpt:
This surface was used to first stably capture AB0264 onto the chip surface. […] The ratio of binding signals (which are proportional to MWs) was approximately 5:1:1 which is consistent with a 1:1:1 molar stoichiometry of complex bound on the CEACAM5 surface.

Residue numbers refer to the chain shown, from its start.

T4 sequence (P12314 16-288 limits assumed): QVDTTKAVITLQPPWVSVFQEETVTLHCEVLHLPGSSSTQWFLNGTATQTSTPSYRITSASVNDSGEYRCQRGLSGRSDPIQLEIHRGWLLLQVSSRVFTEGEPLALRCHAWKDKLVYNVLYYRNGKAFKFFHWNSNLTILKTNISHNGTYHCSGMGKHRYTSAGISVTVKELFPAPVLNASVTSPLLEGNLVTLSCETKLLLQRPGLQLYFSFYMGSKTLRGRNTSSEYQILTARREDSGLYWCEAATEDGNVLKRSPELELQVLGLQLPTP
Human FcRn, sequence (P55899 24-297 limits assumed, chain 1 of 2): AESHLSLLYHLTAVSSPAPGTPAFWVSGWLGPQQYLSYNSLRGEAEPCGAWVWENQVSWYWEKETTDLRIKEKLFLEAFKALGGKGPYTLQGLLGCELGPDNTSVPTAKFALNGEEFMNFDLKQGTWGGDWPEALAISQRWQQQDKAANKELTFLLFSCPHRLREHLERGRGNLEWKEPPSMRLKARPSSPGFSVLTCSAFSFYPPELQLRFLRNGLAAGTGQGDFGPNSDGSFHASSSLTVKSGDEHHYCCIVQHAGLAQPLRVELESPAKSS
Human FcRn, sequence (P61769 21-119 limits assumed, chain 2 of 2): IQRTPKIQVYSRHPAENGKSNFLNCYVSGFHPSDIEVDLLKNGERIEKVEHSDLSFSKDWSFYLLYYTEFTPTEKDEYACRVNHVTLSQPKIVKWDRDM
human FcγRIIIB, sequence (O75015 17-200 limits assumed): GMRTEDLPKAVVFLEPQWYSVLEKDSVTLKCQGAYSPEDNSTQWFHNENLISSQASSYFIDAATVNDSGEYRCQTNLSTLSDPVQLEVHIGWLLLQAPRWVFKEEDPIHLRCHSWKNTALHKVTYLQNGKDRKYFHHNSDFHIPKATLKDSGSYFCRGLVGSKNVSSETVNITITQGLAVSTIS
Cyno FcRn, sequence (Q8SPV9 24-297 limits assumed, chain 1 of 2): as the sequence (P55899 24-297 limits assumed, chain 1 of 2) above, with N39D, E44Q, G99S, S189G, S190N, L217M, S269T counted along it
Cyno FcRn, sequence (Q8SPW0 21-119 limits assumed, chain 2 of 2): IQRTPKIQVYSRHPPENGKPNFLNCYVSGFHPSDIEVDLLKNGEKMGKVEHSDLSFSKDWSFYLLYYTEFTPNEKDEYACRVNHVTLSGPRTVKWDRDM

B1: AB0621 F3' CEACAM5 TriNKET (bispecific antibody, human IgG1, kappa)
chain: DIVMTQSPDSLAVSLGERATINCKSSHSLLYGNFQNNYLAWYQQKPGQPPKLLIYWASTRESGVPDRFSGSGSGTDFTLTISSLQAEDVAVYYCQQYYSYPYTFGCGTKLEIKGGGGSGGGGSGGGGSGGGGSQVQLVQSGAEVKKPGASVKVSCKASGYTFTAYTIHWVRQAPGQCLEWMGYINPSSGYTEYNQKFKDRTTLTADTSISTAYMELSRLRSDDTAVYYCTREGGLLWFDYWGQGTLVTVSSGSDKTHTCPPCPAPELLGGPSVFLFPPKPKDTLMISRTPEVTCVVVDVSHEDPEVKFNWYVDGVEVHNAKTKPREEQYNSTYRVVSVLTVLHQDWLNGKEYKCKVSNKALPAPIEKTISKAKGQPREPRVYTLPPCRDELTKNQVSLTCLVKGFYPSDIAVEWESNGQPENNYKTTPPVLVSDGSFTLYSKLTVDKSRWQQGNVFSCSVMHEALHNHYTQKSLSLSPG
heavy: EVQLVESGGGLVKPGGSLRLSCAASGFTFSSYSMNWVRQAPGKGLEWVSSISSSSSYIYYADSVKGRFTISRDNAKNSLYLQMNSLRAEDTAVYYCARGAPIGAAAGWFDPWGQGTLVTVSSASTKGPSVFPLAPSSKSTSGGTAALGCLVKDYFPEPVTVSWNSGALTSGVHTFPAVLQSSGLYSLSSVVTVPSSSLGTQTYICNVNHKPSNTKVDKKVEPKSCDKTHTCPPCPAPELLGGPSVFLFPPKPKDTLMISRTPEVTCVVVDVSHEDPEVKFNWYVDGVEVHNAKTKPREEQYNSTYRVVSVLTVLHQDWLNGKEYKCKVSNKALPAPIEKTISKAKGQPREPQVCTLPPSRDELTENQVSLTCLVKGFYPSDIAVEWESNGQPENNYKTTPPVLDSDGSFFLYSWLTVDKSRWQQGNVFSCSVMHEALHNHYTQKSLSLSPG
light: DIQMTQSPSSVSASVGDRVTITCRASQGISSWLAWYQQKPGKAPKLLIYAASSLQSGVPSRFSGSGSGTDFTLTISSLQPEDFATYYCQQGVSFPRTFGGGTKVEIKRTVAAPSVFIFPPSDEQLKSGTASVVCLLNNFYPREAKVQWKVDNALQSGNSQESVTEQDSKDSTYSLSSTLTLSKADYEKHKVYACEVTHQGLSSPVTKSFNRGEC
For the molecule B1, the binding result with Human CEACAM8 is “no binding (tested: up to 600 and 1200 nM)”; with human FcγRIIIB, “no binding (tested: titrated from 3000 nM)”. Besides, the KD/KD ref with human FcγRIIB [1] worked out at 0.94 fold; in the experiment with human FcγRIIA H131 [2], 0.68 fold; with human FcγRI [3], 0.64 fold; with human FcγRIIA R131 [4] it was 0.68 fold. Moreover, the Kd with Human FcRn is 440 nM; in the experiment with Cyno FcRn, 310 nM; with human FcγRIIB [5], 3300 nM; with human FcγRIIA H131 [6] it was 600 nM; with human FcγRI [7], 14 nM; in the experiment with human FcγRIIA R131 [8] it was 330 nM. This molecule also displayed an on-rate constant (kon) with human FcγRI [7] of 2.6e+06 M⁻¹ s⁻¹.

B2: AB0264 F3' CEACAM5 TriNKET (bispecific antibody, human IgG1, kappa)
chain: B1 chain with S210P
heavy: B1 heavy
light: B1 light
For B2, in [9], the binding result is “binds”.
